Test in all cases: fluorescent release of 4-methylumbelliferone (chitinase assay kit CS1030)
Holding throughout (format): biochemical, Chitinophaga pinensis
Settings in all cases: kit manufacturer's conditions

Substrate in data set [1]: CC(=O)N[C@H]1[C@H](Oc2ccc3c(C)cc(=O)oc3c2)O[C@H](CO)[C@@H](O[C@@H]2O[C@H](CO)[C@@H](O[C@@H]3O[C@H](CO)[C@@H](O)[C@H](O)[C@H]3NC(C)=O)[C@H](O)[C@H]2NC(C)=O)[C@@H]1O
The text has this: fluorescent release of 4-methylumbelliferone (chitinase assay kit CS1030) on CpChiB

Substrate in data set [2]: CC(=O)N[C@H]1[C@H](Oc2ccc3c(C)cc(=O)oc3c2)O[C@H](CO)[C@@H](O[C@@H]2O[C@H](CO)[C@@H](O[C@@H]3O[C@H](CO)[C@@H](O)[C@H](O)[C@H]3NC(C)=O)[C@H](O)[C@H]2NC(C)=O)[C@@H]1O
The text has this:
fluorescent release of 4-methylumbelliferone (chitinase assay kit CS1030) on CpChiB-CBM6
This is another data set of the same source.

Substrate in data set [3]: CC(=O)N[C@H]1[C@H](Oc2ccc3c(C)cc(=O)oc3c2)O[C@H](CO)[C@@H](O[C@@H]2O[C@H](CO)[C@@H](O[C@@H]3O[C@H](CO)[C@@H](O)[C@H](O)[C@H]3NC(C)=O)[C@H](O)[C@H]2NC(C)=O)[C@@H]1O
The text has this:
fluorescent release of 4-methylumbelliferone (chitinase assay kit CS1030) on […]
This is another data set of the same source.

Substrate in data set [4]: CC(=O)N[C@H]1[C@H](Oc2ccc3c(C)cc(=O)oc3c2)O[C@H](CO)[C@@H](O[C@@H]2O[C@H](CO)[C@@H](O[C@@H]3O[C@H](CO)[C@@H](O)[C@H](O)[C@H]3NC(C)=O)[C@H](O)[C@H]2NC(C)=O)[C@@H]1O
The text has this: fluorescent release of 4-methylumbelliferone (chitinase assay kit CS1030) on CpChiAC-CBM5
The source holds these as a separate data set.

B1: CpChiB (Chitinophaga pinensis DSM 2588) (protein)
chain: QFKVVGYMPSWSGSVSAIQYSKLTHINYAFALPTSTGGLQPIENPSKLSSLVSSGHANGVKVLIAIGGWNNGDDGAFESLAANATYRTNFVNNVMNFVNQYGLDGVDMDWEYPDAGASANNYLALMQQLSTALHNNGKLLTAAVVGTGGASILNGVFNVVDFLNLMAYDYNNYEHSTYTYASQSLSYWVGRGLPASKAILGVPFYARPSWNSYATLLANGANPNSDYFGSDYYNGLPTIRSKTNLAFDQGGGIMMWELSQDATGANSLLSAIYQVKLDR
notes: C-terminal His6 tag (pET21a), E. coli BL21(DE3)
For the protein B1, in data set [1], the Km – broadly, the substrate concentration at which the rate is half of its maximum – is 240 ± 10 µM; the kcat (usually the number of substrate molecules converted per active site and unit of time at saturation) was 2.199 ± 0.148 s⁻¹; the kcat/Km (commonly the second-order rate constant that governs catalysis at low substrate concentration) turned out to be 8850 M⁻¹ s⁻¹.

B2: CpChiB-CBM6 (Chitinophaga pinensis DSM 2588) (protein)
chain: QFKVVGYMPSWSGSVSAIQYSKLTHINYAFALPTSTGGLQPIENPSKLSSLVSSGHANGVKVLIAIGGWNNGDDGAFESLAANATYRTNFVNNVMNFVNQYGLDGVDMDWEYPDAGASANNYLALMQQLSTALHNNGKLLTAAVVGTGGASILNGVFNVVDFLNLMAYDYNNYEHSTYTYASQSLSYWVGRGLPASKAILGVPFYARPSWNSYATLLANGANPNSDYFGSDYYNGLPTIRSKTNLAFDQGGGIMMWELSQDATGANSLLSAIYQVKLDRTGTNPPTGSTLIQAENYTSMSGVQVEATTDAGGGSNVGYIETGDWLAYANINFPTSGAYKVEYRVASQSTGGQLSLDLNSGAIVLGYLNVPVTGGWQTWTTISHNVNVTAGTYSLGVYAQSGGWNINWIRITKVAS
notes: as for B1
On to B2, for which, in data set [2], the Michaelis-Menten constant (Km) amounted to 120 ± 3 µM, the kcat is 1.005 ± 0.0533 s⁻¹ and the kcat/Km was 8150 M⁻¹ s⁻¹.

B3: CpChiAC (Chitinophaga pinensis DSM 2588) (protein)
chain: KVVVGYWQNWNLASAPYIRLRDVDSRYNVIEVAFGTTSSDLSTVNFTPEGTTVADFKADIATLQAQGRKVLLSLGGETGTLVINTEANKQAFISSMKNLLDSYNFDGFDLDIEGGTSLQLNNGDNNFMAPTTPKVVNLIAAAKEIISYRKAQGKNCLLTMAPETYYVQTAYGATYSPLVGAYLPIIYGLRNELSWIQPQLYNTGSVMGLDNKVYNSTTADFIVSMTEMLLQGFPVSGTSQTFPALREDQVAFGLPAAPGAAGSGYTAPAEVKKALNYLTKGQSYGGTYVIRKAAGYPGLRGIMTWSVNWDKVNNSEFAANYYPYFFGT
notes: as for B1
As to B3, in data set [3], the Km turned out to be 220 ± 3 µM, the kcat turned out to be 2.6587 ± 0.035 s⁻¹ and the kcat/Km was 11800 M⁻¹ s⁻¹.

B4: CpChiAC-CBM5 (Chitinophaga pinensis DSM 2588) (protein)
chain: KVVVGYWQNWNLASAPYIRLRDVDSRYNVIEVAFGTTSSDLSTVNFTPEGTTVADFKADIATLQAQGRKVLLSLGGETGTLVINTEANKQAFISSMKNLLDSYNFDGFDLDIEGGTSLQLNNGDNNFMAPTTPKVVNLIAAAKEIISYRKAQGKNCLLTMAPETYYVQTAYGATYSPLVGAYLPIIYGLRNELSWIQPQLYNTGSVMGLDNKVYNSTTADFIVSMTEMLLQGFPVSGTSQTFPALREDQVAFGLPAAPGAAGSGYTAPAEVKKALNYLTKGQSYGGTYVIRKAAGYPGLRGIMTWSVNWDKVNNSEFAANYYPYFFGTTPGNQSPVVSITSPASGASFTAPASITITASASDADGSIAKVEFYNGATKLGQATAAPYSYTWTNVAAATYSLTAVATDNAGAVTTSAAVSVTVNGTGGNTCDGIAAWSATIAYNGSQQVVYNGKIYTAKWWTQGDQPDTHSGADQVWAYVRDCGGSNPGNQAPTVSITSPSAGASFSAPATVTIQATAADADGTIAKVEFYNGNTKLGEVTASPYSYTWGNVAAGAYSITAVATDNGSKSTTSAAVAIQVGSGNTGNCAGVAAYEPFPKVYNQGDKVVYNGVLYESQSNGLYNVTPGTADWWWKPLGACGAAARVAVVSPEPDGVNADSKLVVFPNPLTGTVLKVQINAAQGEKVLIELWSTNGNAILRKQIVAGAKGQQTVDLDVSQVPAGSWILKTSNQQSGRKSAAKVIRL
notes: as for B1
With B4, in data set [4], the Km is 290 ± 0.2 µM, the kcat turned out to be 3.0285 ± 0.0383 s⁻¹ and the kcat/Km stood at 10600 M⁻¹ s⁻¹.

The values above are taken from paper PMC10449523, “A polysaccharide utilization locus from Chitinophaga pinensis simultaneously targets chitin and β-glucans found in fungal cell walls” (mSphere, 2023).
